# According to paper PMC12117103, “Cryo-EM Structure of the relaxosome, a complex essential for bacterial mating and the spread of antibiotic resistance genes” (Nature Communications, 2024):
# B1: TraM (F plasmid) (natural protein, E. coli F plasmid, UniProt P10026 1-127, looked up)
# chain: MAKVNLYISNDAYEKINAIIEKRRQEGAREKDVSFSATASMLLELGLRVHEAQMERKESAFNQTEFNKLLLECVVKTQSSVAKILGIESLSPHVSGNSKFEYANMVEDIREKVSSEMERFFPKNDDE
# notes: TraM accessory protein of the F plasmid; synthetic traM gene in the NcoI and HindIII sites of pET28a; In the relaxosome only an AlphaFold model was docked into low-resolution density; also called TraM tetramer; source: E. coli C41 (DE3), purified (ammonium sulphate, HiTrap Heparin, resource Q, HiTrap Blue, Superdex 200 SEC)
# Target: the molecule itself
# Experiment: SEC; last purification step of TraM on Superdex 200 Increase 10/300 in 20 mM Tris-HCl pH 7.5, 100 mM NaCl
protein,measurement,value
B1,binding result,binds
